Experimental data reported in paper PMC10121219.

Target: insulin receptor ectodomain (UniProt P06213)
Experiment: SPR; insulin receptor immobilised; svPDE flowed at 0.25, 0.5, 1.0, 2.0, 4.0 and 8.0 uM; KD by steady-state affinity model; apparent

## snake venom phosphodiesterase (svPDE) from Naja atra (from UniProt A0A2D0TC04 1-830)
  Kd: 1800 nM
